Experimental data taken from PMC7708043 (Nucleic Acids Research, 2020).

Legend:
Test in all cases: FRET or BRET
mEGFP-PARP1 [1] = molecular target: T1, mEGFP-PARP1 (UniProt P09874 1-1014)
mEGFP-PARP1 [2] = molecular target: T1, mEGFP-PARP1; remark: listed apart in the source
mEGFP-ALC1 = molecular target: T2, mEGFP-ALC1 (UniProt Q86WJ1 1-897)
T2 sequence (looked up): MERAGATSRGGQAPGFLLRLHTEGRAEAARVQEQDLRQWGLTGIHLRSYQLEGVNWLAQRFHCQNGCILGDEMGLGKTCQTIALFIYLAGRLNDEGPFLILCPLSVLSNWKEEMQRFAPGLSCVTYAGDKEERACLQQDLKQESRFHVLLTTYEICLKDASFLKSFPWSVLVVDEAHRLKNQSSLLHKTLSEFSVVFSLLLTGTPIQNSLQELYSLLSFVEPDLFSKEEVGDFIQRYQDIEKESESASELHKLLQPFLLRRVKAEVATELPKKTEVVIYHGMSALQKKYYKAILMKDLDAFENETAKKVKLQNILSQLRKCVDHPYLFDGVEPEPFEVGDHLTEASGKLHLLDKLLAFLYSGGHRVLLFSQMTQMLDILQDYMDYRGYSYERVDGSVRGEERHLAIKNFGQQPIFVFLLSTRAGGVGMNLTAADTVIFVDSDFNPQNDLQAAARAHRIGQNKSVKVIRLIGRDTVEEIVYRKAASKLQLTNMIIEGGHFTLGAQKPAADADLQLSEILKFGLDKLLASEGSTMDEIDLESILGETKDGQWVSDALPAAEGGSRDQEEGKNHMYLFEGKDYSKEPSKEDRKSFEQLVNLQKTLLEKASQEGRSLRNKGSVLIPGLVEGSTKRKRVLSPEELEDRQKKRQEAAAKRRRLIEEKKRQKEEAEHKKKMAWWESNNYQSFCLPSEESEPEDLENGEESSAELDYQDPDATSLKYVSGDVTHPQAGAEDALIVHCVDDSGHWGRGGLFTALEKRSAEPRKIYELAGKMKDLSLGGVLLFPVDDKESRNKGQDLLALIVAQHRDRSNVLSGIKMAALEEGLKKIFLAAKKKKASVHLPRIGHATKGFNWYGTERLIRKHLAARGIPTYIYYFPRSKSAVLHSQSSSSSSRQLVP

T1 sequence (P09874 whole entry): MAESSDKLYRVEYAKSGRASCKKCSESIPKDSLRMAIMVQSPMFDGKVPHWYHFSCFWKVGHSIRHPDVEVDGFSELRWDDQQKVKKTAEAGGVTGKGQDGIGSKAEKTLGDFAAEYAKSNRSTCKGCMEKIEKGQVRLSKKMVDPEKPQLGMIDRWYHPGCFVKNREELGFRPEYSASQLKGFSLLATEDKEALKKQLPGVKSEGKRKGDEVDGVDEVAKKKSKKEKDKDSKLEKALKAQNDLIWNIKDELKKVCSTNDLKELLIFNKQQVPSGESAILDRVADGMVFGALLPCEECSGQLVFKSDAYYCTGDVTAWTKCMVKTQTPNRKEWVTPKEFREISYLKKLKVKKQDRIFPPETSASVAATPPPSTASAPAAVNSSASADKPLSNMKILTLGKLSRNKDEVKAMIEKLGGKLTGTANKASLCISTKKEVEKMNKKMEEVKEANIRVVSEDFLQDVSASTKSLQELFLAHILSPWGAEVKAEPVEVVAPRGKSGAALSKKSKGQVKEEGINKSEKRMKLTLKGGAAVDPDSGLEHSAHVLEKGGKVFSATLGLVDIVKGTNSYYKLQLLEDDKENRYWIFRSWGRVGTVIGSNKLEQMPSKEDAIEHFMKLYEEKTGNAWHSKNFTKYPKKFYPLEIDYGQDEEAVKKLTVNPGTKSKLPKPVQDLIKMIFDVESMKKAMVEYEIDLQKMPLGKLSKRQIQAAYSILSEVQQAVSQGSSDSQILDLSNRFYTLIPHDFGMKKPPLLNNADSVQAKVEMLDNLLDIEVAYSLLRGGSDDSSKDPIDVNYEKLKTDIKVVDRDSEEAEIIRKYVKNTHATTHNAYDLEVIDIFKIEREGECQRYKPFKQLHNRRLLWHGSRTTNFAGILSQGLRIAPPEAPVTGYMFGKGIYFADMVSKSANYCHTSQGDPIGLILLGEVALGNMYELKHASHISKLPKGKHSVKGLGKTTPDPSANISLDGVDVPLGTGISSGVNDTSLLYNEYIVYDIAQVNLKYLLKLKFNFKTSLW

Binder | median FRET efficiency (at the damage site) (mEGFP-PARP1 [1]) [%] | median FRET efficiency (1 min after damage) (mEGFP-PARP1 [2]) [%] | median FRET efficiency (5 min after damage) (mEGFP-PARP1 [2]) [%] | median FRET efficiency (at the damage site) (mEGFP-ALC1) [%]
mCherry-ALC1 (natural protein, UniProt Q86WJ1 1-897, looked up) MERAGATSRGGQAPGFLLRLHTEGRAEAARVQEQDLRQWGLTGIHLRSYQLEGVNWLAQRFHCQNGCILGDEMGLGKTCQTIALFIYLAGRLNDEGPFLILCPLSVLSNWKEEMQRFAPGLSCVTYAGDKEERACLQQDLKQESRFHVLLTTYEICLKDASFLKSFPWSVLVVDEAHRLKNQSSLLHKTLSEFSVVFSLLLTGTPIQNSLQELYSLLSFVEPDLFSKEEVGDFIQRYQDIEKESESASELHKLLQPFLLRRVKAEVATELPKKTEVVIYHGMSALQKKYYKAILMKDLDAFENETAKKVKLQNILSQLRKCVDHPYLFDGVEPEPFEVGDHLTEASGKLHLLDKLLAFLYSGGHRVLLFSQMTQMLDILQDYMDYRGYSYERVDGSVRGEERHLAIKNFGQQPIFVFLLSTRAGGVGMNLTAADTVIFVDSDFNPQNDLQAAARAHRIGQNKSVKVIRLIGRDTVEEIVYRKAASKLQLTNMIIEGGHFTLGAQKPAADADLQLSEILKFGLDKLLASEGSTMDEIDLESILGETKDGQWVSDALPAAEGGSRDQEEGKNHMYLFEGKDYSKEPSKEDRKSFEQLVNLQKTLLEKASQEGRSLRNKGSVLIPGLVEGSTKRKRVLSPEELEDRQKKRQEAAAKRRRLIEEKKRQKEEAEHKKKMAWWESNNYQSFCLPSEESEPEDLENGEESSAELDYQDPDATSLKYVSGDVTHPQAGAEDALIVHCVDDSGHWGRGGLFTALEKRSAEPRKIYELAGKMKDLSLGGVLLFPVDDKESRNKGQDLLALIVAQHRDRSNVLSGIKMAALEEGLKKIFLAAKKKKASVHLPRIGHATKGFNWYGTERLIRKHLAARGIPTYIYYFPRSKSAVLHSQSSSSSSRQLVP | 5.5 | 5.8 | 3.8 | –
mCherry-TRIM33 (natural protein, UniProt Q9UPN9 1-1127, looked up) MAENKGGGEAESGGGGSGSAPVTAGAAGPAAQEAEPPLTAVLVEEEEEEGGRAGAEGGAAGPDDGGVAAASSGSAQAASSPAASVGTGVAGGAVSTPAPAPASAPAPGPSAGPPPGPPASLLDTCAVCQQSLQSRREAEPKLLPCLHSFCLRCLPEPERQLSVPIPGGSNGDIQQVGVIRCPVCRQECRQIDLVDNYFVKDTSEAPSSSDEKSEQVCTSCEDNASAVGFCVECGEWLCKTCIEAHQRVKFTKDHLIRKKEDVSESVGASGQRPVFCPVHKQEQLKLFCETCDRLTCRDCQLLEHKEHRYQFLEEAFQNQKGAIENLLAKLLEKKNYVHFAATQVQNRIKEVNETNKRVEQEIKVAIFTLINEINKKGKSLLQQLENVTKERQMKLLQQQNDITGLSRQVKHVMNFTNWAIASGSSTALLYSKRLITFQLRHILKARCDPVPAANGAIRFHCDPTFWAKNVVNLGNLVIESKPAPGYTPNVVVGQVPPGTNHISKTPGQINLAQLRLQHMQQQVYAQKHQQLQQMRMQQPPAPVPTTTTTTQQHPRQAAPQMLQQQPPRLISVQTMQRGNMNCGAFQAHQMRLAQNAARIPGIPRHSGPQYSMMQPHLQRQHSNPGHAGPFPVVSVHNTTINPTSPTTATMANANRGPTSPSVTAIELIPSVTNPENLPSLPDIPPIQLEDAGSSSLDNLLSRYISGSHLPPQPTSTMNPSPGPSALSPGSSGLSNSHTPVRPPSTSSTGSRGSCGSSGRTAEKTSLSFKSDQVKVKQEPGTEDEICSFSGGVKQEKTEDGRRSACMLSSPESSLTPPLSTNLHLESELDALASLENHVKIEPADMNESCKQSGLSSLVNGKSPIRSLMHRSARIGGDGNNKDDDPNEDWCAVCQNGGDLLCCEKCPKVFHLTCHVPTLLSFPSGDWICTFCRDIGKPEVEYDCDNLQHSKKGKTAQGLSPVDQRKCERLLLYLYCHELSIEFQEPVPASIPNYYKIIKKPMDLSTVKKKLQKKHSQHYQIPDDFVADVRLIFKNCERFNEMMKVVQVYADTQEINLKADSEVAQAGKAVALYFEDKLTEIYSDRTFAPLPEFEQEEDDGEVTEDSDEDFIQPRRKRLKSDERPVHIK | – | – | – | 2.2
